Consider 2 molecules from PMC7320042.

Like-named read-outs stand apart in the source and are kept apart here.

Assay [1] addresses recombinant trypsin (UniProt P00761). As to the kind of experiment: enzyme inhibition kinetics (Lineweaver-Burk); trypsin (1.35 mg/mL stock) activity on BAEE (0.01-0.075 mM) with and without SKTI or rSKTI (0.63 mg/mL stock); 25 °C, 67 mM phosphate buffer pH 7.6; KI from Vmax/V'max = 1 + [I]/KI.
The target is the same in assay [2].
For assay [3] the target is unchanged. In words: enzyme inhibition kinetics (Lineweaver-Burk); trypsin (1.35 mg/mL stock) activity on BAEE (0.01-0.075 mM) with and without SKTI or rSKTI (0.63 mg/mL stock); 25 °C, 67 mM phosphate buffer pH 7.6; KI from Vmax/V'max = 1 + [I]/KI. The source holds these as a separate data set.
The target is the same in assay [4]. As to the kind of experiment: enzyme inhibition titration; trypsin (1.35 mg/mL) inhibited by increasing contents of rSKTI; residual activity on BAEE, 67 mM phosphate buffer pH 7.6, 25 °C; ratio worked out from the concentrations of trypsin and rSKTI.

UniProt P00761, sequence (P00761 whole entry): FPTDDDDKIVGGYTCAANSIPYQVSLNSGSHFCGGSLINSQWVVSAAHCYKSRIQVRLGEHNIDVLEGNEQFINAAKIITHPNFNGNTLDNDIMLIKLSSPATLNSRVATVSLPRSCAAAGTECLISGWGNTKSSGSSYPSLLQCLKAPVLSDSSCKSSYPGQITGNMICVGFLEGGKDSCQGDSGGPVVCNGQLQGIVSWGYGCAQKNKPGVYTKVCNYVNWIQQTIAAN

B1: recombinant soybean Kunitz trypsin inhibitor (natural protein)
chain: DFVLDNEGNPLENGGTYYILSDITAFGGIRAAPTGNERCPLTVVQSRNELDKGIGTIISSPYRIRFIAEGHPLSLKFDSFAVIMLCVGIPTEWSVVEDLPEGPAVKIGENKDAMDGWFRLERVSDDEFNNYKLVFCPQQAEDDKCGDIGISIDHDDGTRRLVVSKNKPLVVQFQKLDKESL
One may read the Ki as the equilibrium dissociation constant of an inhibitor or competing ligand from its target. Usually stoichiometry N stands for a count of units in the complex or per binding partner. In the case of B1, the inhibition constant Ki in the assay with recombinant trypsin [1] stood at 2200 nM; with recombinant trypsin [3], 2290 nM. Moreover, the inhibition of trypsin (1.35 mg/mL) activity on BAEE by increasing rSKTI: IC50, the amount of rSKTI when half trypsin activity was inhibited; activity completely inhibited at 1.5 mg/mL rSKTI with recombinant trypsin [2] came to 500 µg/mL. Further, the stoichiometry N with recombinant trypsin [4] came out at 1.

B2: natural soybean Kunitz trypsin inhibitor (natural protein)
chain: DFVLDNEGNPLENGGTYYILSDITAFGGIRAAPTGNERCPLTVVQSRNELDKGIGTIISSPYRIRFIAEGHPLSLKFDSFAVIMLCVGIPTEWSVVEDLPEGPAVKIGENKDAMDGWFRLERVSDDEFNNYKLVFCPQQAEDDKCGDIGISIDHDDGTRRLVVSKNKPLVVQFQKLDKESL
In the case of B2, the Ki in the assay with recombinant trypsin [1] came to 1670 nM.
